Test results reported in paper PMC7118173 (Nature Communications, 2020).

Key:
SepF [1] = test: Western blots of whole-cell extracts (SepF depletion / expression); type: cell-based, C. glutamicum
Description: 24 homogenizer. Crude extracts (120 μg) were analyzed by SDS-PAGE, electro-transferred onto a 0.2 μm Nitrocellulose membrane and blocked with 5% (w/v) skimmed milk. Membranes were incubated with an anti-SepF antibody (produced by Covalab, Supplementary Fig. 25a), an anti-FtsZ antibody (produced by Proteogenix, Supplementary Fig. 25b) or an anti-mNeonGreen antibody (purchased from Chromotek) for 1 h at room temperature.

Pino-sepF strain = test: Growth curves / complementation of the Pino-sepF strain
Description: Positive colonies were grown in BHI media supplemented with 25 µg/ml kanamycin overnight at 30 °C and 120 rpm shaking.
All strains were plated in CGXII media plates with 4% (w/v) sucrose as a carbon source for 2 days at 30 °C and then single colonies were inoculated in 10 ml of CGXII media 4% (w/v) sucrose overnight at 30 °C and 120 rpm shaking. The next day, 20 ml of CGXII media supplemented with the appropriate repressor or inducer were inoculated with the overnight cultures to a starting OD600 of 1. OD600 measurements were taken every 1.5 h. Each growth curve represents the average of three different growth curves originally from three different single colonies. […] When required, CGXII media 4% (w/v) sucrose was supplemented with either 1% (w/v) myo-inositol, 50 ng/ml tetracycline or 1% (w/v) gluconate and 25 μg/ml kanamycin.

His6-Sumo tagged SepFΔML = molecular target: T1, His6-Sumo tagged SepFΔML (Corynebacterium glutamicum, UniProt Q8NNN6 63-152); test: SPR; Biacore T200, 25 °C, 25 mM HEPES pH 8, 150 mM KCl, 0.1 mM EDTA; His6-Sumo SepF variants covalently immobilised on NTA chips (3000-4000 RU); FtsZCTD 1.56 to 400 µM injected; steady-state fit; apparent Kd; conditions: both partners purified
T1 construct: SepF (cg2363), Corynebacterium glutamicum, amino acids 63 to 152; Covalently immobilised on an NTA sensor chip; also called immobilized SepF; source: E. coli BL21 (DE3), purified (Ni-NTA, dialysed directly without SUMO protease for SPR); not shown: His6, N-terminal, kept; SUMO, N-terminal, kept
T1 sequence (looked up): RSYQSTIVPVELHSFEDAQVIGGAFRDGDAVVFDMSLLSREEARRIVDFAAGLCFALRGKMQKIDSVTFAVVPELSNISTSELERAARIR

[2] = molecular target: T2, His6-Sumo tagged SepF_(ΔML,F131A) (Corynebacterium glutamicum, UniProt Q8NNN6 63-152, F131A); test: as above; conditions: both partners purified
T2 construct: SepF (cg2363), Corynebacterium glutamicum, amino acids 63 to 152 with F131A; also called SepF_(F131A); source: E. coli BL21 (DE3), purified (Ni-NTA, dialysed directly without SUMO protease for SPR); not shown: His6, N-terminal, kept; SUMO, N-terminal, kept
T2 sequence (looked up): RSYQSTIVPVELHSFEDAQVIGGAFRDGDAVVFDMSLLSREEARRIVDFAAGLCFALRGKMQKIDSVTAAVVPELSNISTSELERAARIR

SepF [3] = test: SepF polymerization (turbidity) assay in the presence of SUVs; type: biochemical, C. glutamicum; conditions: SepF (or mutant) plus SUVs 50 µM each, pH 6.9, 25 °C
Description: When used, FtsZCTD was added at a final concentration of 100 μM.
Reverse phase evaporation was used to prepare small unilamellar vesicles (SUVs). A 10 mM lipid solution made of an 8:2 mixture of 1-palmitoyl-2-oleoyl phosphatidylcholine (POPC) and 1-palmitoyl-2-oleoylglycero-3-phosphoglycerol (POPG) (Avanti Polar Lipids) was prepared as described. Chloroform was removed by evaporation under vacuum conditions and the dried phospholipid film was resuspended in a mixture of diethyl ether and buffer (25 mM Hepes pH 7.4, 10 mM MgCl2 and 150 mM KCl). Diethyl ether was eliminated by reverse phase evaporation and by slowly decreasing the pressure to the vacuum. SUVs were obtained by sonication during 30 min at 4 °C. The diameter and charge of SUV were determined by measuring dynamic light scattering (DLS) and electrophoretic mobility profiles on a Zetasizer Nano instrument (Malvern Instruments).

Dynamic light scattering = type: physicochemical
Description: Polydispersity of the samples was measured using Dyna-pro Plate Reader (Wyatt technology) equipped with an 830 nm laser and a temperature control module. The Dynamics software (version 7.9) was used to schedule data acquisition and data analysis. For each well, 20 measurements of 10 s were averaged and this operation was repeated 20 times for each condition at 25 °C. For samples containing FtsZCTD, the peptide was used at a final concentration of 100 µM. All the experiments were carried out as minimum three biological and technical replicates.

[4] = Negative stain EM of SUVs with SepF; type: biochemical
[5] = molecular target: the molecule itself; test: crystal structure; SepFΔML 10 mg/ml with FtsZCTD 5.8 mg/ml (1:5 molar ratio), 100 mM sodium acetate pH 4.6, 30% PEG 4000, 18 °C; 1.6 Å
WT C. glutamicum = test: Number of ring-like structures per cell, overexpression in WT; type: cell-based, Corynebacterium glutamicum; conditions: overexpression in WT background
[6] = Negative stain EM of SepF rings; type: physicochemical
Description: For all samples, 400 mesh carbon coated grids (Electron Microscopy Sciences; CF 400-Cu) were glow-discharged on an ELMO system for 30 sec at 2 mA. 5 µl samples were applied onto the grids and incubated for 30 s, the sample was blotted, washed in 3 drops of water and then stained with 2% (weight/vol) uranyl acetate. Images were recorded on a Gatan UltraScan4000 charged coupled device (CCD) camera (Gatan) on a Tecnai T12 BioTWINLaB6 electron microscope operating at a voltage of 120 kV.

[7] = tested on: C. glutamicum ATCC13032 whole-cell extracts; test: SepF and FtsZ quantification by Western blot; type: cell-based, Corynebacterium glutamicum; conditions: 60 ugr loaded
FtsZ and SUVs = test: Cryo-EM of ternary complex FtsZ-GTP + SepF + SUVs; type: biochemical, C. glutamicum; conditions: 100 μM SUVs, 10 μM SepF, 10 μM FtsZ, 3 mM GTP
Description: 5 µl of sample were deposited onto glow-discharged lacey carbon copper grids (Ted Pella) and plunge-frozen in liquid ethane using a Leica EM-CPC. Cryo-EM data acquisition was performed on a JEOL 2200FS (Jeol, Japan) 200 kV cryo-electron microscope equipped with an Omega in-column energy filter. High magnification (30,000×, corresponding pixel size 0.32 nm) zero-loss (slit: 20 eV) images were collected at nominal defocus between 1 and 4 µm depending on the experiment on a Gatan USC1000 slow scan CCD camera.

FtsZ [8] = conditions: 400 nm, 25 °C, 600 s, 100 mM KCl, 10 mM MgCl2, 25 mM Pipes pH 6.9, 15 µM proteins, GTP
Description: The mixture was placed into a quartz cuvette with a light path of 10 mm or a 96-well plate and 0.5−2 mM GTP or GMPCPP were added to the reaction mixture. Data acquisition started immediately using an UV–Visible Spectrophotometer (Thermo scientific Evolution 220) during 600 s at 25 °C using 400 nm for excitation and emission and spectra with slits widths of 1 nm or a Varioskan™ LUX plate reader (Thermo Fisher Scientific) with an excitation of 400 nm. Experiments were done in triplicates and measurements were taken every 15 s during 600 s and keeping a constant temperature of 25 °C.

FtsZ [9] = tested on: FtsZ
FtsZ [10] = tested on: FtsZ; remark: listed apart in the source
Description: After, 100 µl of the mixture were place in a 96-well-plate that contained GTP at 2 mM final concentration. Reactions were incubated at room temperature for 10 min and 100 µl of the developing reagent was added. The mixture was incubated at room temperature for 25 min to allow development of the green color and absorbance was measured at 620 nm using a Varioskan™ LUX (Thermo Fisher Scientific). Reactions were performed in triplicate for each condition.

[11] = molecular target: the molecule itself; test: crystal structure; SepF_(ΔML,Δα3) 17 mg/ml alone, 0.1 M MES pH 6, 20% PEG MME 2000, 0.2 M NaCl, 18 °C
[12] = molecular target: the molecule itself; test: SEC + AUC; sedimentation velocity, 42,000 rpm, 20 °C, 1-2 mg/ml, 50 mM Hepes pH 7.4, 150 mM KCl, 10 mM MgCl2; size exclusion chromatography

For `O[C@H]1[C@H](O)[C@@H](O)[C@H](O)[C@@H](O)[C@H]1O` [myo-inositol, reference compound], the SepF protein level (SepF [1]; Pino-sepF strain, 1% myo-inositol) was “rapid depletion of SepF” and the “growth of Pino-sepF” value (Pino-sepF strain; 1% myo-inositol, after the first 6 h) was “growth stopped for the depleted strain”.

B1: FtsZCTD peptide (conserved C-terminal domain of C. glutamicum FtsZ, 10 residues) (peptide)
peptide: DDLDVPSFLQ
notes: C-terminal 10 residues of FtsZ (cg2366), Corynebacterium glutamicum; the printed residues D436, P438 and F440 place the peptide at 433-442; also called FtsZ C-terminal domain peptide; source: synthetic peptide, bought: Genosphere
For B1, the Kd (His6-Sumo tagged SepFΔML) was 15 µM and the Kd [2] was 340 µM.

B2: SepFΔα3: SepF amino acids 1 to 137, lacking the regulatory C-terminal helix (protein)
chain: MSMLKKTKEFFGLAPYEAEHEDAYYADEPRYEGTAAYAPEYRERDYGYAPEAPAPVAPSPAPRSYQSTIVPVELHSFEDAQVIGGAFRDGDAVVFDMSLLSREEARRIVDFAAGLCFALRGKMQKIDSVTFAVVPEL
modifications: left off: His6, N-terminal, cleaved | SUMO, N-terminal, cleaved
In the case of B2, the “polymerization with SUVs (turbidity)” value (SepF [3]) is reported as “polymerization and vesicle tubulation were also seen but could only be partially reversed”, the “dispersity by DLS” value (Dynamic light scattering; protein alone) is reported as “monodisperse” and the “reversal by FtsZCTD of particle formation and vesicle tubulation” value ([4]; SepFΔα3 + SUVs, upon addition of FtsZCTD) is reported as “only partially reversed”.

B3: C. glutamicum SepF C-terminal core domain (SepFΔML), tag removed (domain or fragment, Corynebacterium glutamicum, UniProt Q8NNN6 63-152, looked up)
chain: RSYQSTIVPVELHSFEDAQVIGGAFRDGDAVVFDMSLLSREEARRIVDFAAGLCFALRGKMQKIDSVTFAVVPELSNISTSELERAARIR
notes: Gene codon optimised and synthesised for E. coli; homodimer in the crystal; also called globular core of SepF; source: E. coli BL21 (DE3), purified (Ni-NTA, SUMO protease, SEC); not shown: His6, N-terminal, cleaved; SUMO, N-terminal, cleaved
B3: binds [5].

B4: SepF: C. glutamicum SepF (cg2363), full-length (protein)
chain: MSMLKKTKEFFGLAPYEAEHEDAYYADEPRYEGTAAYAPEYRERDYGYAPEAPAPVAPSPAPRSYQSTIVPVELHSFEDAQVIGGAFRDGDAVVFDMSLLSREEARRIVDFAAGLCFALRGKMQKIDSVTFAVVPELSNISTSELERAARIR
modifications: left off: His6, N-terminal, cleaved | SUMO, N-terminal, cleaved
For B4, the “ring-like structures per cell” value (WT C. glutamicum) was “multiple-rings phenotype is not observed”, the “polymerization with SUVs (turbidity)” value (SepF [3]) was “SepF concentration-dependent polymerization” and the “particle size by DLS” value (Dynamic light scattering; SUVs + SepF 50 µM each, pH 6.9, 25 °C) was “formation of large structures”. The “vesicle morphology by EM” value ([4]; end-point of SepF + SUVs reaction, 50 μM) was “lipid vesicles were tubulated”, the “ring-like structures by EM” value [6] was “unsuccessful” and the “band volume in whole-cell extract” value ([7]; ON S (over-night, sucrose)) was 455544. For the same molecule, the “band volume in whole-cell extract” value ([7]; ON S+G (over-night, sucrose + gluconate)) was 420204, the “band volume in whole-cell extract” value ([7]; T6 S (6 h, sucrose)) was 522995 and the “band volume in whole-cell extract” value ([7]; T6 S+G (6 h, sucrose + gluconate)) was 618345. For the same molecule, the “protein overexpression upon induction” value (SepF [1]; SepF under Ptac, WT) was ~ 30 fold, the “lipid binding in ternary complex” value (FtsZ and SUVs) was “dimeric form of SepF retains lipid-binding capability” and the “effect on FtsZ polymerization / bundling” value (FtsZ [8]) was “strong FtsZ bundling effect”. The “FtsZ filament morphology by EM” value (FtsZ [9]) was “thick bundles of FtsZ protofilaments, as well as highly curved filaments”, the “effect on GTPase activity of FtsZ” value (FtsZ [10]; 15 µM SepF and FtsZ, F test p=0.5872) was “did not significantly affect the GTPase activity of FtsZ” and the “GTPase activity (phosphate release), mean” value (FtsZ [10]; 15 µM each, 2 mM GTP, pH 6.9, room temperature, 10 min, mean, n = 11) was 0.09 nmol. The “complementation of SepF depletion (growth)” value (Pino-sepF strain; SepF depletion with 1% myo-inositol, exogenous construct induced) was “rescued”.

B5: SepF_(ΔML,Δα3) (domain or fragment, Corynebacterium glutamicum, UniProt Q8NNN6 63-137, looked up)
chain: RSYQSTIVPVELHSFEDAQVIGGAFRDGDAVVFDMSLLSREEARRIVDFAAGLCFALRGKMQKIDSVTFAVVPEL
notes: SepF (cg2363), Corynebacterium glutamicum, amino acids 63 to 137 (core domain without the C-terminal helix α3); Dimers associate into linear polymers in the crystals; source: E. coli BL21 (DE3), purified (Ni-NTA, SUMO protease, SEC); not shown: His6, N-terminal, cleaved; SUMO, N-terminal, cleaved
B5: binds [11].

B6: C. glutamicum SepF devoid of helix α3 (construct of the SEC and AUC experiments) (domain or fragment)
chain: MSYQSTIVPVELHSFEDAQVIGGAFRDGDAVVFDMSLLSREEARRIVDFAAGLCFALRGKMQKIDSVTFAVVPEL
With B6 the “stoichiometry N” value [12] was 2.
